The data set deals with the molecule itself. Briefly: X-ray crystals of CodY grown with GTP, with isoleucine and valine, or without effectors.

Data on one protein can be found in patent publication US8202695 (TUFTS UNIVERSITY, dated 2012).

B1: Bacillus subtilis CodY protein (other, UniProt P39779 2-259, looked up)
chain: ALLQKTRIINSMLQAAAGKPVNFKEMAETLRDVIDSNIFVVSRRGKLLGYSINQQIENDRMKKMLEDRQFPEEYTKNLFNVPETSSNLDINSEYTAFPVENRDLFQAGLTTIVPIIGGGERLGTLILSRLQDQFNDDDLILAEYGATVVGMEILREKAEEIEEEARSKAVVQMAISSLSYSELEAIEHIFEELDGNEGLLVASKIADRVGITRSVIVNALRKLESAGVIESRSLGMKGTYIKVLNNKFLIELENLKSH
notes: For crystallization, B. subtilis CodY was overproduced in E. coli with a C-terminal or an N-terminal 6xHis tag; also called purified CodY protein
Consider B1, for which the binding result is recorded as “binds”.
